Experimental data as given in US20110059095A1 (Regeneron, published 2011).
Substitutions are numbered along the chain they refer to. Values belong to the binder of their own block, whether it stands above or below them. Where no end group is shown, it is not given here. The star is where a group is joined. Biotin = O=C1N[C@H]2[C@H](CS[C@H]2CCCCC(=O)*)N1

Tests used:
[1] = biological target: T1, Peptide A (human PAR-2), unbiotinylated (Human); assay: SPR, antibody captured
T1 construct: also called Peptide A No Biotin
T1 peptide: GTNRSSKGRSLIGKVDGT
Procedure: (§1) Equilibrium dissociation constants (KD values) for antigen binding to selected purified PAR-2 antibodies were determined by surface kinetics using a real-time surface plasmon resonance biosensor assay. Antibody was captured on either a rabbit anti-mouse IgG polyclonal antibody (GE Healthcare, Piscataway, N.J.) surface or a goat anti-human IgG polyclonal antibody (Jackson Immuno Research Lab, West Grove, Pa.) surface created through direct amine chemical coupling to a BIACORE™ CM5 sensor chip to form a captured antibody surface. […] Antigen-antibody binding and dissociation were monitored in real time at room temperature. Kinetic analysis was performed to calculate KD and half-life of antigen/antibody complex dissociation (Table 10). For those antibodies where no T_{1/2} value is shown, steady state analysis was used to calculate the KD value. NB: no binding observed under current experimental conditions. ND: not determined.

[2] = biological target: T2, Peptide B (human PAR-2), unbiotinylated (Human); assay: SPR, antibody captured
T2 construct: also called Peptide B No Biotin
T2 peptide: SLIGKVDGTSHVTG
Procedure: as §1

full length human PAR-2 [3] = biological target: T3, full length human PAR-2 (human, UniProt P55085 26-397); assay: cell ELISA, 10 ug/ml antibody
T3 construct: overexpressed on HEK293-derived 293/D9 cells; also called 293/D9/hPAR-2rec cells
T3 sequence (P55085 26-397 G138A limits assumed): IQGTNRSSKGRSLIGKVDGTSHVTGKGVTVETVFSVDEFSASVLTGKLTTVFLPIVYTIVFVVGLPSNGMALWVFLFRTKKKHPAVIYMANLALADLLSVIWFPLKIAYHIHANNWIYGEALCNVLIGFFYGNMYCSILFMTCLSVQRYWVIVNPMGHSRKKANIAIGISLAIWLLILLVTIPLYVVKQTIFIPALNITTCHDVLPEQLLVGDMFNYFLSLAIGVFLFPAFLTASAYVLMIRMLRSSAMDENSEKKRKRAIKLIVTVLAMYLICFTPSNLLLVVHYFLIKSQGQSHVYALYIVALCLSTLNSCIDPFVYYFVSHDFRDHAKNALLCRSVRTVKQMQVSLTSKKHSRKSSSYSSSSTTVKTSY
From the text: HEK293 cells were transfected with an NF-κB-luciferase-IRES-eGFP reporter plasmid. […] A clonal cell line, named D9, having low background levels of luciferase activity and high levels of eGFP when induced with IL-1β was made by a series of successive sorts of cell populations using flow cytometry. The 293/D9 cell line was then separately transfected with human PAR-2 or mouse PAR-2 to create the stable cell lines 293/D9/h PAR-2rec and 293/D9/m PAR-2rec, respectively.
Binding of anti-PAR-2 antibodies to 293/D9/hPAR-2rec cells was determined by ELISA. 293/D9 and 293/D9/hPAR-2rec cells were plated at a density of 5×10⁴ cells/well in media and incubated overnight at 37° C. and 5% CO₂. Purified antibody was added to the cells to a final concentration of 10 μg/ml and incubated at room temperature for one hour. Cells were then fixed and washed before detection of bound antibodies with HRP conjugated anti-mouse IgG and developed by standard colorimetric response using TMB substrate. Absorbance was read at OD₄₅₀ for 0.1 second.

[4] = biological target: T4, Peptide B (human PAR-2), C-terminal biotinylated (Human, not fully specified); assay: peptide ELISA
T4 construct: also called Peptide B C-Term
T4 peptide: SLIGKVDGTSHVTGGGGGS-biotin
Procedure: (§2) Anti-PAR-2 antibodies were tested for their ability to bind to the PAR-2 peptides. Various PAR-2 Peptides (Table 3) were coated onto 96-well plates at a concentration of 2 μg/ml and incubated overnight followed by blocking in a suitable blocking agent for one hour. […] Purified anti-PAR-2 antibodies were added to the plate coated with PAR-2 peptides to a final concentration ranging from 0.2 to 2.0 μg/ml and incubated for one hour at room temperature. Detection of bound antibodies was determined with Horse-Radish Peroxidase (HRP) conjugated anti-mouse or human IgG (Jackson Immuno Research Lab, West Grove, Pa.) and developed by standard colorimetric response using tetramethylbenzidine (TMB) substrate. Absorbance was read at OD₄₅₀ for 0.1 second.

[5] = biological target: T5, Peptide B (human PAR-2), N-terminal biotinylated (Human); assay: peptide ELISA
T5 construct: also called Peptide B N-Term
T5 peptide: Biotin-GGGGSSLIGKVDGTSHVTG
Procedure: as §2

[6] = biological target: T1, Peptide A (human PAR-2), unbiotinylated; assay: peptide ELISA
Procedure: as §2

[7] = biological target: T6, Peptide A (human PAR-2), N-terminal biotinylated (Human, N-terminal biotin via G4S linker); assay: peptide ELISA
T6 construct: also called Peptide A N-Term
T6 peptide: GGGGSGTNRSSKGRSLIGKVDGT
Procedure: as §2

[8] = biological target: T7, Peptide A (human PAR-2), C-terminal biotinylated (Human, C-terminal biotin via G4S linker); assay: peptide ELISA
T7 construct: also called Peptide A C-Term
Procedure: as §2

[9] = biological target: T8, Peptide C (human PAR-2), N-terminal biotinylated (Human); assay: peptide ELISA
T8 construct: also called Peptide C N-Term
T8 peptide: Biotin-GGGGSSLIGKV
Procedure: as §2

[10] = biological target: T2, Peptide B (human PAR-2), unbiotinylated; assay: peptide ELISA
Procedure: as §2

[11] = biological target: T9, Peptide C (human PAR-2), C-terminal biotinylated (Human); assay: peptide ELISA
T9 construct: also called Peptide C C-Term
T9 peptide: SLIGKVGGGGS-biotin
Procedure: as §2

[12] = biological target: T4, Peptide B (human PAR-2), C-terminal …; assay: SPR, peptide immobilized
Procedure: (§3) In another series of experiments, equilibrium dissociation constants (KD values) for purified antibody binding to selected biotinylated and unbiotinylated forms of PAR-2 peptides were determined by surface kinetics using a real-time surface plasmon resonance biosensor assay. Neutravidin (Pierce, Rockford, Ill.) was covalently coupled to the surface of a Biacore™ C1 chip or CM5 chip using amine coupling chemistry. Biotinylated (N-Term or C-Term) PAR-2 peptides (Peptides A and B) were immobilized on the surface via the high affinity binding interaction between biotin and the amine coupled Neutravidin.
(§4) In a first experiment using this format, varying concentrations (ranging from 5 to 100 μg/ml) of purified antibody were injected at a rate of 50 μl/min over a surface coated with immobilized peptide at low-density (<1RU) for 300 seconds. Antibody-peptide binding and dissociation was monitored in real time 25° C.

[13] = biological target: T7, Peptide A (human PAR-2), C-terminal …; assay: SPR, peptide immobilized
Procedure: as §3, §4

full length human PAR-2 [14] = biological target: T3, full length human PAR-2; assay: cell-based or functional assay

- Kd [1]: 4.47 nM
- T1/2 [1]: 1.01 h
- Kd [2]: 61.7 nM
- T1/2 [2]: 7.7 min
- A450 ratio (293/D9/hPAR-2rec to 293/D9 cells) (full length human PAR-2 [3]): 2.5
- OD450 [4]: 1 to 4 od
- OD450 [5]: 1 to 4 od
- OD450 [6]: 1 to 4 od
- OD450 [7]: 1 to 4 od
- OD450 [8]: 1 to 4 od
- OD450 [9]: 0 to 0.09 od
- OD450 [10]: 1 to 4 od
- OD450 [11]: 0 to 0.09 od
- Kd [12]: 1.49 nM
- T1/2 [12]: 2.33 h
- Kd [13]: 0.826 nM
- T1/2 [13]: 2.82 h
- IC50, NF-kB-luciferase, 10 nM Human Trypsin 1 (full length human PAR-2 [14]): 165 nM
- IC50, NF-kB-luciferase, 10 nM Trypsin (full length human PAR-2 [14]): 10.4 nM
- IC50, NF-kB-luciferase, 20 nM Trypsin (full length human PAR-2 [14]): 26.8 nM
- IC50, NF-kB-luciferase, 30 nM Trypsin (full length human PAR-2 [14]): 33 nM
- IC50, NF-kB-luciferase, 75 nM Trypsin (full length human PAR-2 [14]): 5.7 nM
- IC50, NF-kB-luciferase, 200 nM Factor Xa (full length human PAR-2 [14]): 45.3 nM
- IC50, NF-kB-luciferase, 250 nM Trypsin (full length human PAR-2 [14]): 2.3 nM
- IC50, NF-kB-luciferase, 750 nM Lung Tryptase (full length human PAR-2 [14]): 1 nM
B1: H2M588N (antibody, V domains shown)
VH: EVQLLESGGGLVQPGGSLRLSCAASGFTFSSYAMTWVRQAPGKGLYWVSAISGGRGSAYYADSVKGRFTISRDNSKNTLYLQMNSLRAEDTAVYYCAKEGDSGYDLAYWGRGTLVTVSS
VL: DIQMTQSPSSLSASVGDRVTITCRARQGISNNLAWLQQKPGKAPKSLIYAASSLQSGIPSKFSGSGSGTYFTLTISSLQPEDFATYYCQQYKSSPLTFGGGTKVEIK
notes: chimeric: human variable, mouse constant domains

- Kd [1]: 9.62 nM
- T1/2 [1]: 0.112 h
- Kd [2]: 126 nM
- T1/2 [2]: 3.5 min
- A450 ratio (293/D9/hPAR-2rec to 293/D9 cells) (full length human PAR-2 [3]): 2.44
- OD450 [4]: 1 to 4 od
- OD450 [5]: 1 to 4 od
- OD450 [6]: 1 to 4 od
- OD450 [7]: 1 to 4 od
- OD450 [8]: 1 to 4 od
- OD450 [9]: 0 to 0.09 od
- OD450 [10]: 1 to 4 od
- OD450 [11]: 0 to 0.09 od
- Kd [12]: 2.32 nM
- T1/2 [12]: 1 h
- Kd [13]: 1.8 nM
- T1/2 [13]: 1.32 h
- IC50, NF-kB-luciferase, 10 nM Human Trypsin 1 (full length human PAR-2 [14]): 154 nM
- IC50, NF-kB-luciferase, 10 nM Trypsin (full length human PAR-2 [14]): 12.4 nM
- IC50, NF-kB-luciferase, 20 nM Trypsin (full length human PAR-2 [14]): 70 nM
- IC50, NF-kB-luciferase, 75 nM Trypsin (full length human PAR-2 [14]): 7.8 nM
- IC50, NF-kB-luciferase, 200 nM Factor Xa (full length human PAR-2 [14]): 54.2 nM
- IC50, NF-kB-luciferase, 250 nM Trypsin (full length human PAR-2 [14]): 6.6 nM
- IC50, NF-kB-luciferase, 750 nM Lung Tryptase (full length human PAR-2 [14]): 7 nM
B2: H2M618N (antibody, V domains shown)
VH: EVQLLESGGGLVQPGGSLRLSCAASGFTFRSYTMTWVRQAPGKGLDWVSGITDSGAGTYYGDSVKGRFTISRDNSKNTLYLQMNSLRAEDTAVYYCVKEGDSGYDLDYWGQGTLVTVSS
VL: B1 VL with R26S, N31T, N32Y, A51T, I58V, G66R, Y70D
notes: as for B1
